Test results from patent US20200038505A1.

Molecular target: EBVgp350/220 wild type (full length, BLLF1, EBV strain B95-8) (Epstein-Barr virus strain B95-8) (UniProt P03200)
Test: cell-based or functional assay

Sequence of UniProt P03200 (P03200 whole entry): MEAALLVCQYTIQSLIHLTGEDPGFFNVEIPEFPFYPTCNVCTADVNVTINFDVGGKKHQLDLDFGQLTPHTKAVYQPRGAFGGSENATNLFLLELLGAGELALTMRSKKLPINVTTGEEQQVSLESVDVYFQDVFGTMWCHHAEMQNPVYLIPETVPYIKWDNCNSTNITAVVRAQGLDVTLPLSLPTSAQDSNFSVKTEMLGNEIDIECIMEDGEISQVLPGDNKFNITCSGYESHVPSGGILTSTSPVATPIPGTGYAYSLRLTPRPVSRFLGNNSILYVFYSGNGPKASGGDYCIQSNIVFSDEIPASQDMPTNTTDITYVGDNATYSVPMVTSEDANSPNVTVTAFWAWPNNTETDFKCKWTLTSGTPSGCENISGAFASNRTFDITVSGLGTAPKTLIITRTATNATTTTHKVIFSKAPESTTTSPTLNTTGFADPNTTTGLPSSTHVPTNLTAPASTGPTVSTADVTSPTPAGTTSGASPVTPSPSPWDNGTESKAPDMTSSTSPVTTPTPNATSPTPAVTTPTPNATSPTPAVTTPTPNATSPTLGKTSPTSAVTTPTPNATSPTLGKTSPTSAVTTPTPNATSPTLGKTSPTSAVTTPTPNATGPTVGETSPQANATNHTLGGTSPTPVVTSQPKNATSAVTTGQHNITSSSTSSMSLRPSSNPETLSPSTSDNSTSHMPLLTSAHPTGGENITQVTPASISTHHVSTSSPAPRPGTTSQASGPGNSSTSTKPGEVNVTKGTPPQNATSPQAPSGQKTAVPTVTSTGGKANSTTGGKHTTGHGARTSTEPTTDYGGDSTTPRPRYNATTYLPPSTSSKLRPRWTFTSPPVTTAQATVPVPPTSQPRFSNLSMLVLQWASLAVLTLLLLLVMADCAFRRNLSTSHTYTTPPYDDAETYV

Substance	percent fluorescent (EGFP+) Raji cells after infection with EGFP-EBV pre-incubated with the antibody	percent of EGFP+ Raji cells post-infection
monoclonal antibody mAb-2L10 anti-gp350/220	27%	25%
monoclonal antibody mAb-72A1 anti-gp350/220	1%	–
